Experimental findings from the supplement of paper PMC7877785 are described below.

± gives the uncertainty stated by the source.

The nature of the data set: self-splicing fitness, log relative to wild type (ln ratio); higher = more splicing; Tetrahymena group I intron in knt gene, E. coli kanamycin selection, DiMSum; sequences stand for … in CUCUCU…GGAGGGAAAAGUUAUCAGGCAUGCACCUGGUAGCUAGUCUUUAAACCAAUAGAUUGCAUCGGUUUAAAAGGCAAGACCGUCAAAUUGCGGGAAAGGGGUCAACAGCCGUUCAGUACCAAGUCUCAGGGGAAACUUUGAGAUGGCCUUGCAAAGGGUAUGGUAAUAAGCUGACGGACAUGGUCCUAACCACGCAGCCAAGUCCUAAGUCAACAGAUCUUCUGUUGAUAUGGAUGCAGUUCACAGACUAAAUGUCGGUCGGGGAAGAUGUAUUCUUCUCAUAAGAUAUAGUCGGACCUCUCCUUAAUGGGAGCUAGCGGAUGAAGUGAUGCAACACUGGAGCCGCUGGGAACUAAUUUGUAUGCGAAAGUAUAUUGAUUAGUUUUGGAGUACUCGUGGUCG
The procedure, abridged: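 The eight P1ex-region nucleotides of an intron in the knt kanamycin-resistance gene on pET-22b(+) were all randomised and the library put into E. coli BL21(DE3). Six replicate transformations were grown overnight at 37°C or 30°C on LB agar with or without 25 μg/mL kanamycin, together with 100 μg/mL carbenicillin, 50 μM IPTG and 0.2% rhamnose. Colonies were pooled and amplicon-sequenced on an Illumina HiSeq 2500. Fitness from DiMSum is the error-weighted combination of wild-type-normalised replicate fold changes, kanamycin over none.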

As for CUUUAGCAAUAUUACGAAUG, the “self-splicing fitness (ln)” value reads like this: (30 °C) 0.423 ± 0.14; (37 °C) -0.306 ± 0.17. Turning to ACAGAGCAAUAUUACGGGUC, the “self-splicing fitness (ln)” value (30 °C) was -2.99 ± 0.18 and the “self-splicing fitness (ln)” value (37 °C) was -2.89 ± 0.27. Regarding GAAGAGCAAUAUUACGCUUU, the “self-splicing fitness (ln)” value (30 °C) is -4.12 ± 0.3 and the “self-splicing fitness (ln)” value (37 °C) is -1.91 ± 0.28. CCCUAGCAAUAUUACGAGCC: the “self-splicing fitness (ln)” value (30 °C) was -3.5 ± 0.29. Take GCGGAGCAAUAUUACGCCUA: the “self-splicing fitness (ln)” value (30 °C) was -2.53 ± 0.46.

On to AGAUAGCAAUAUUACGUUCA, for which the “self-splicing fitness (ln)” value is -0.78 ± 0.13 (30 °C) and -0.5 ± 0.15 (37 °C). The corresponding values for UGCCAGCAAUAUUACGGCCG are -0.659 ± 0.073 and -0.389 ± 0.092. The matching figures for UGCAAGCAAUAUUACGCAAG: -2.59 ± 0.17 and -3.02 ± 0.32.

In the case of ACCCAGCAAUAUUACGGCGU, the “self-splicing fitness (ln)” value was -2.08 ± 0.081 (30 °C) and -0.746 ± 0.084 (37 °C). The corresponding values for CGUCAGCAAUAUUACGUUUA are -2.93 ± 0.18 and -1.66 ± 0.16. Regarding UAGAAGCAAUAUUACGCUGA, where the note is “37 °C”, the “self-splicing fitness (ln)” value is -1.74 ± 0.2. In the case of GCUGAGCAAUAUUACGGUGA, the “self-splicing fitness (ln)” value is -1.35 ± 0.17 (30 °C) and -0.217 ± 0.17 (37 °C). The corresponding values for AAUAAGCAAUAUUACGACAU are -0.117 ± 0.012 and 0.0514 ± 0.032. The corresponding values for CUCAAGCAAUAUUACGUGUU are -3.89 ± 0.23 and -2.76 ± 0.22. For the sequence GGACAGCAAUAUUACGAAUU, the “self-splicing fitness (ln)” value is -0.588 ± 0.076 (30 °C) and 0.11 ± 0.11 (37 °C). Turning to CUUAAGCAAUAUUACGUUUA, the “self-splicing fitness (ln)” value was -2.81 ± 0.18 (30 °C) and -2.6 ± 0.24 (37 °C). The corresponding values for AGUUAGCAAUAUUACGUGUG are -3.18 ± 0.15 and -1.8 ± 0.13. Take GUGGAGCAAUAUUACGCCUG: the “self-splicing fitness (ln)” value (30 °C) was -2.7 ± 0.23. For the sequence UCCCAGCAAUAUUACGGGAU, the “self-splicing fitness (ln)” value was -3.59 ± 0.14 (30 °C) and -3.46 ± 0.21 (37 °C). The matching figures for AUUGAGCAAUAUUACGAGGA: -1.8 ± 0.32 and -2.41 ± 0.29. The matching figures for CACGAGCAAUAUUACGAGCA: -4.24 ± 0.39 and -3.46 ± 0.4. The matching figures for GAAGAGCAAUAUUACGUGCC: -3.3 ± 0.19 and -1.81 ± 0.23.

For GGGAAGCAAUAUUACGAGAG, the “self-splicing fitness (ln)” value reads like this: (30 °C) -3.24 ± 0.27; (37 °C) -2.46 ± 0.24.

With AUCAAGCAAUAUUACGUUGA, the “self-splicing fitness (ln)” value is, setting by setting: (30 °C) -2.52 ± 0.1; (37 °C) -1.8 ± 0.12. The corresponding values for CAUAAGCAAUAUUACGUGUU are -3.05 ± 0.13 and -2.62 ± 0.13. The corresponding values for UGCGAGCAAUAUUACGAGGG are -2.1 ± 0.13 and -2.3 ± 0.17. The corresponding values for ACAUAGCAAUAUUACGAUAU are -2.69 ± 0.15 and -1.97 ± 0.14.

With GGUAAGCAAUAUUACGGAGU, the “self-splicing fitness (ln)” value (30 °C) is -3.39 ± 0.22 and the “self-splicing fitness (ln)” value (37 °C) is -1.73 ± 0.18. As to GUCUAGCAAUAUUACGGUUA, the “self-splicing fitness (ln)” value was -0.904 ± 0.15 (30 °C) and -0.443 ± 0.13 (37 °C). The corresponding values for GUAGAGCAAUAUUACGUAAA are -4.18 ± 0.36 and -1.4 ± 0.27. The corresponding values for UUAAAGCAAUAUUACGUCUG are 0.0385 ± 0.075 and 0.255 ± 0.096.

Take GCCGAGCAAUAUUACGGCUA: the “self-splicing fitness (ln)” value was -2.04 ± 0.35 (30 °C) and -1.35 ± 0.27 (37 °C).

In the case of GACCAGCAAUAUUACGGGGA, the “self-splicing fitness (ln)” value runs as follows: (30 °C) -0.82 ± 0.074; (37 °C) -0.839 ± 0.087. For the sequence CUAAAGCAAUAUUACGCUAA, where the note is “30 °C”, the “self-splicing fitness (ln)” value is -5.16 ± 0.45. AUCGAGCAAUAUUACGUCUG: the “self-splicing fitness (ln)” value (30 °C) was -3.46 ± 0.34 and the “self-splicing fitness (ln)” value (37 °C) is -1.43 ± 0.19.

Regarding GUUGAGCAAUAUUACGUGUC, the “self-splicing fitness (ln)” value is -2.34 ± 0.14 (30 °C) and -2.2 ± 0.2 (37 °C). On to AGGAAGCAAUAUUACGAAGU, for which the “self-splicing fitness (ln)” value (30 °C) is -2.15 ± 0.24 and the “self-splicing fitness (ln)” value (37 °C) was -1.82 ± 0.33. The corresponding values for UAUCAGCAAUAUUACGGUGU are -1.35 ± 0.072 and -1.19 ± 0.098. The matching figures for GUCCAGCAAUAUUACGAUAA: -1.3 ± 0.087 and -0.506 ± 0.11. The corresponding values for GUUCAGCAAUAUUACGGGUU are -1.65 ± 0.089 and -0.108 ± 0.083. With CUAGAGCAAUAUUACGGGUA, the “self-splicing fitness (ln)” value is, setting by setting: (30 °C) -3.53 ± 0.36; (37 °C) -2.3 ± 0.36.

Consider CGGCAGCAAUAUUACGAAGA, for which the “self-splicing fitness (ln)” value was -2.55 ± 0.17 (30 °C) and -1.25 ± 0.18 (37 °C).

With AUCCAGCAAUAUUACGAGGG, the “self-splicing fitness (ln)” value runs as follows: (30 °C) -2.9 ± 0.1; (37 °C) -1.49 ± 0.11. The matching figures for AAUUAGCAAUAUUACGCUAG: -2.38 ± 0.13 and -1.06 ± 0.13.

In the case of UAGCAGCAAUAUUACGGCGU, the “self-splicing fitness (ln)” value by setting is: (30 °C) -0.605 ± 0.12; (37 °C) 0.0421 ± 0.13. As for GACCAGCAAUAUUACGGAUU, the “self-splicing fitness (ln)” value is, setting by setting: (30 °C) -0.723 ± 0.049; (37 °C) -0.029 ± 0.062.

Consider UCUUAGCAAUAUUACGAUGC, for which, under “30 °C”, the “self-splicing fitness (ln)” value is -2.66 ± 0.3. As for AAAGAGCAAUAUUACGCAGG, the “self-splicing fitness (ln)” value (30 °C) was -3.47 ± 0.24 and the “self-splicing fitness (ln)” value (37 °C) was -3.45 ± 0.35. The matching figures for GGCGAGCAAUAUUACGCCUU: -3.21 ± 0.3 and -1.81 ± 0.26. Consider UUGAAGCAAUAUUACGUAGU, for which the “self-splicing fitness (ln)” value is -1.97 ± 0.12 (30 °C) and -1.54 ± 0.12 (37 °C). As for GAAUAGCAAUAUUACGCAGC, the “self-splicing fitness (ln)” value is -2.72 ± 0.2 (30 °C) and -1.93 ± 0.2 (37 °C).

Regarding CGGGAGCAAUAUUACGGGUC, the “self-splicing fitness (ln)” value (37 °C) is -2.97 ± 0.48.

Turning to GAACAGCAAUAUUACGUCCC, the “self-splicing fitness (ln)” value by setting is: (30 °C) -1.98 ± 0.16; (37 °C) -1.25 ± 0.19. The matching figures for CCCAAGCAAUAUUACGAAGU: -2.98 ± 0.15 and -2.19 ± 0.18. The corresponding values for CUACAGCAAUAUUACGGUAU are -2.43 ± 0.08 and -1.31 ± 0.096. The matching figures for GAGUAGCAAUAUUACGAUGA: -1.87 ± 0.2 and -2.22 ± 0.23. Take CCAAAGCAAUAUUACGAGUC: the “self-splicing fitness (ln)” value is -3.73 ± 0.2 (30 °C) and -2.04 ± 0.19 (37 °C). The corresponding values for GUAUAGCAAUAUUACGGACU are -1.83 ± 0.16 and -1.27 ± 0.3. The matching figures for UAUGAGCAAUAUUACGGCCG: -1.33 ± 0.36 and -1.01 ± 0.35. The matching figures for UGGGAGCAAUAUUACGGGGC: -2.62 ± 0.48 and -2.07 ± 0.34. As to GUUUAGCAAUAUUACGUAUC, the “self-splicing fitness (ln)” value (30 °C) is -0.904 ± 0.28 and the “self-splicing fitness (ln)” value (37 °C) is -0.233 ± 0.36. AACGAGCAAUAUUACGGCUA: the “self-splicing fitness (ln)” value was -1.23 ± 0.15 (30 °C) and -0.829 ± 0.18 (37 °C).

As for CGACAGCAAUAUUACGCUUG, the “self-splicing fitness (ln)” value is -1.8 ± 0.098 (30 °C) and -1.22 ± 0.12 (37 °C). In the case of CUGUAGCAAUAUUACGCAUC, the “self-splicing fitness (ln)” value is -3.45 ± 0.32 (30 °C) and -2.69 ± 0.34 (37 °C).

Regarding CUGCAGCAAUAUUACGCGUG, the “self-splicing fitness (ln)” value was -1.92 ± 0.12 (30 °C) and -1.67 ± 0.16 (37 °C). For UCGGAGCAAUAUUACGGUGG, the “self-splicing fitness (ln)” value reads like this: (30 °C) -3.35 ± 0.12; (37 °C) -2.01 ± 0.16. The matching figures for CCUAAGCAAUAUUACGAGGA: -1.99 ± 0.15 and -1.85 ± 0.13. In the case of CAAAAGCAAUAUUACGAGUG, the “self-splicing fitness (ln)” value is, setting by setting: (30 °C) -0.995 ± 0.058; (37 °C) -0.101 ± 0.075.

Consider UAAAAGCAAUAUUACGCUUC, for which the “self-splicing fitness (ln)” value (37 °C) is -3.19 ± 0.25. Turning to AGUUAGCAAUAUUACGGAGA, the “self-splicing fitness (ln)” value (30 °C) was -1.99 ± 0.27 and the “self-splicing fitness (ln)” value (37 °C) was -2.86 ± 0.48.

For AUGGAGCAAUAUUACGUGCA, the “self-splicing fitness (ln)” value was -2.82 ± 0.21 (30 °C) and -1.65 ± 0.16 (37 °C). Consider GACGAGCAAUAUUACGAUGA, for which the “self-splicing fitness (ln)” value was -4.01 ± 0.39 (30 °C) and -2.14 ± 0.2 (37 °C). Consider UCCUAGCAAUAUUACGCUAG, for which the “self-splicing fitness (ln)” value (30 °C) was -3.47 ± 0.44. With UUACAGCAAUAUUACGUAGA, the “self-splicing fitness (ln)” value was -1.01 ± 0.067 (30 °C) and -0.372 ± 0.081 (37 °C). GUCUAGCAAUAUUACGGGGG: the “self-splicing fitness (ln)” value is -2.58 ± 0.33 (30 °C) and -1.46 ± 0.17 (37 °C). As for GAAUAGCAAUAUUACGAUCG, the “self-splicing fitness (ln)” value is, setting by setting: (30 °C) 1.29 ± 0.19; (37 °C) -0.178 ± 0.27. With UCUAAGCAAUAUUACGAAAC, the “self-splicing fitness (ln)” value (37 °C) was -2.6 ± 0.45. AGUAAGCAAUAUUACGGCCG: the “self-splicing fitness (ln)” value is -0.888 ± 0.11 (30 °C) and -0.63 ± 0.18 (37 °C).
